Biological target: human MAL (human) (UniProt P58753)
Assay: P8 phage display panning on plate-immobilised MAL, after round 4, NGS

UniProt P58753, sequence (P58753 79-221 limits assumed): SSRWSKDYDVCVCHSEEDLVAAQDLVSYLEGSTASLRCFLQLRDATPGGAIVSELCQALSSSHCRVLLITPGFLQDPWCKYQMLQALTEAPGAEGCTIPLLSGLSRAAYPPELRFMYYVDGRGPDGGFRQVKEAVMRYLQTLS

Binder	NGS count [count]	Population [%]
SEFIQKIILWMNPKIV	4460	1.38
AFLYTFLINLTHPTNF	51100	18.9
AFFWAQLKSVLGNPTM	28800	8.9
KLIQGWFLYRLLKIEQ	2070	0.64
YLKWGYPWFWDRLRFA	517	0.19
DFLNWFIALKSTVIEN	867	0.27
AWALHQLQQIINWHET	232	0.07
DTKLKKGESIAPELLR	5620	1.74
QLIQQWIELHLHQLHL	9390	2.9
TFLGHLYNALVQAGIH	24700	7.64
RNFVAYLFQALANKGI	28000	8.63
RNNFIGHLYQALYRIG	3120	0.96
NQWRNALTAAANLSGW	848	0.26
AFFWEQLRTVLGKPTM	11800	3.65
WFLTAFRMAMDQVADT	353	0.11
WALQELVKILQAKIFL	227	0.07
FTLAVHVRNWLVGGFI	520	0.19
WFMMKFRTVLDHVNDV	2270	0.7

Continued, values first:

NGS count [count]	Population [%]	Binder
3620	1.12	HFFWIQLKSILGETSF
146	0.05	KFIWDIINAISSQIRV
2580	0.8	SLLYDHLRWLGIRAFL
3160	0.97	WFLFTVRSAIYAMSPA
4890	1.51	KLFWEKFKEFFLPSLSR
17200	5.31	YFLHFLLFSRPETEYI
295	0.09	YLISYIFNELARAGFS
22600	5.97	LFFWESLKQLLRSDGR

Biological target: human MyD88 (human) (UniProt Q99836)
UniProt Q99836, sequence (Q99836 155-296 limits assumed): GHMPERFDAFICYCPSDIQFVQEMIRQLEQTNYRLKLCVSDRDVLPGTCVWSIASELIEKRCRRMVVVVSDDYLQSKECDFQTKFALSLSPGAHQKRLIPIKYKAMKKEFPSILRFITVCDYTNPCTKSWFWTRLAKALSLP
Assay: P8 phage display panning on plate-immobilised MyD88, after round 4, NGS

NGS count [count]	Population [%]	Binder
1600	0.62	QLIQQWIELHLHQLHL

Biological target: human MyD88 (human) (UniProt Q99836)
Assay: P3 phage display panning on plate-immobilised MyD88, after round 4, NGS

NGS count [count]	Population [%]	Binder
7320	2.13	YLKWGYPWFWDRLRFA
2460	0.72	DTKLKKGESIAPELLR
28700	8.35	NQWRNALTAAANLSGW

Biological target: human MAL (human) (UniProt P58753)
Assay: P3 phage display panning on plate-immobilised MAL, after round 4, NGS

NGS count [count]	Population [%]	Binder
1680	0.63	YLKWGYPWFWDRLRFA
25800	9.71	NQWRNALTAAANLSGW
